# Patent US20180009892A1 (EUREKA THERAPEUTICS, published 2018)
# Numbering of substitutions follows the chain as printed.
# B1: P601-4 (scFv, V domains shown)
# VH: EVQLVQSGPGLVKPSGTLSLTCAVSGGSISSSNWWSWVRQPPGKGLEWIGEIYHSGSTNYNPSLKSRVTISVDKSKNQFSLKLGSVTAADTATYYCARDLWLGEWDLWGQGTLVTVSS
# VL: QSVLTQPPSASGAPGQRVTISCSGGISNVGTNGVNWYQHLPGTAPKLLVDAMNQRPSGVPDRFSGSRSGTSGSLAITGLRSEDEADYYCATWDDSLSGVLFGGGTKLTVLG
# B2: Antibody 601-13 (antibody, V domains shown)
# VH: EVQLVQSGAEVKKPGSSVKVSCKASGGTFSTFAINWVRQAPGQGLEWMGGVIPVSGTEDYSQKFQGRLSLTADESTGTAYMELSSLRSDDTAVYYCARDRSGRDWDYFDYWGQGTLVTVSS
# VL: DIVMTQSPSSLSASVGDRVTITCQASQDISNYLNWYQQKPGKAPKLLIYDASNLETGVPSRFSGSGSGTDFIFTISSLQPEDIATYYCQQFDNLPYTFGQGTKVEIKR
# B3: Antibody 601-100 (antibody, V domains shown)
# VH: EVQLVQSGGGVVQPGGPLRLSCAASGFTFSSYSMNWVRQAPGKGLEWVSSISSSSSYIYYADSVKGRFTISRDNAKNSLYLQMNSLRAEDTAVYYCARGLGGWTHDAFDIWGQGTMVTVSS
# VL: QSALTQPASVSGSPGQSITISCTGTSRDVGGYDYVSWYQQYPGNAPKLMIYDVSRRPSGVSHRFSASKSGNTASLTISGLQTEDEADYYCSSYTSSSTRVFGGGTKVTVL
# B4: Antibody 601-103 (antibody, V domains shown)
# VH: B3 VH with G10D, V11L, P17S, M116T
# VL: QSVLTQPASVSGSPGQSITISCTGTTSDVGGYNYVSWYQQHPGKAPKLMIYDVSKRPSGVSNRFSGSKSGNTASLTISGLQAEDEADYYCSSYTSSSTDVFGTGTKLTVL
# B5: Antibody 601-28 (antibody, V domains shown)
# VH: B3 VH with G10D, V11L, P17S, M116T
# VL: QSALTQPASVSGSPGQSITISCTGTSSDVGGYNYVSWYQQHPGKAPKLMIFDVSNRPSGVSNRFSGSKSGNTASLTISGLQAEDEADYYCSSYTSSSTLFGGGTKLTVL
# B6: Antibody 601-112 (antibody, V domains shown)
# VH: B3 VH with G10D, V11L, P17S, M116T
# VL: B5 VL with F51Y, N55K, S95G, S96R, L99V
# B7: Antibody 601-119 (antibody, V domains shown)
# VH: B3 VH with E1Q, V11L, Q13K, P17S, S30G, S31T, M116T
# VL: QSALTQPASVSASPGQSITISCTGTSSDVGGYNYVTWYQQHPGKAPKLMIYDVSKRPSGVLDRFSGSKSGNTASLTISGLQAEDEADYFCSSYTSSSTLVFGGGTKLTVLG
# B8: Antibody 601-130 (antibody, V domains shown)
# VH: EVQLVETGGGLVKPGGSLRLSCEASGFSLSSYSMNWVRQAPGKGLEWVSSISSSSTHIYYADSLKGRFTISRDNAKNSLFLQMDNLRAEDTAVYYCARATIGFDYWGQGTLVTVSS
# VL: QSVLTQPPSVSGAPGQRVTISCTGSSSNIGAGYDVHWYQQLPGTAPKLLIYGNSNRPSGVPDRFSGSKSGTSASLAITGLQAEDEADYYCQSYDSSLSGYVFGTGTKLTVL
# B9: Antibody 601-37 (antibody, V domains shown)
# VH: EVQLVQSGAEVKKPGASVKVSCKASGYTFNNYGFSWVRQAPGQGLEWMGWISVYNGNTNYAQKLQGRVTMTTDTSTSTAYMELRSLRSDDTAVYYCARDYYSDSSGYWDDAFDIWGQGTMVTVSS
# VL: AIRMTQSPSSLSASVGDRVTITCQASQDISNYLNWYQQKPGKAPKLLIYAASSLQSGVPSRFSGSGSGTDFTLTISSLQPEDFATYYCQQSYSTPFTFGPGTKVDIK
# B10: Antibody 601-141 (antibody, V domains shown)
# VH: B9 VH with E1Q, V5Q, Y27H, N30S, F34I, V53T, M120T
# VL: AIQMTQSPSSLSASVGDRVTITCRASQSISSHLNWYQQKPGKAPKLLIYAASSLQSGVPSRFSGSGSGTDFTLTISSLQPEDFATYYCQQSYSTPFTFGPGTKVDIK
# B11: Antibody 601-147 (antibody, V domains shown)
# VH: QMQLVQSGAEVKKPGASVKVSCKASGYTFSRYYIHWVRQAPGQGLEWMGLINPGGGSTNYAQKFQGRVTMTRDTSTNTVYLELSSLRSDDTAVYYCARDYGTIDARRFDFWGQGTLVTVSS
# VL: QSALTQPPSASGTPGQRVTISCSGSSSNIGSNYVYWYQQLPGTAPKLLIYRNNQRPSGVPDRFSGSKSGTSASLAISGLRSEDEADYYCAAWDDSLSGYVFGTGTKVTVL
# B12: Antibody 601-149 (antibody, V domains shown)
# VH: EAQLVESGGGLVKPGGSLRLSCAASGFTFSDYYMGWVRQAPGKGLKWLSYISDRAHTIYDTDSVKGRFTISRDDAKSSLYLRMNNLRVEDTAVYYCARAVGAGEGFDYWGQGTLVTVSS
# VL: DIQLTQSPSSLSASVGDRVTITCQASQDVRNYLNWYQQKPGKAPNLLIYDATNLESGVPSRFSGSGSGTDFTFTISSLQPEDFATYYCQQYDNLPLSFGGGTKVEIK
# B13: Antibody 601-4 (antibody, V domains shown)
# VH: B1 VH
# VL: B1 VL
# B14: Antibody 601-50 (antibody, V domains shown)
# VH: B11 VH with M2V, V5Q, Q39R
# VL: QSALTQPPSASGTPGQRVTISCPGSSSNIGSNYVYWYQQLPGTAPKLLIYRNNQRPSGVPDRFSGSKSGTSATLGITGLQTGDEADYYCGTWDSSLSAYVFGTGTKVTVL
# Molecular target: T1, human ROR2-ECD (human, UniProt Q01974 34-403)
# T1 construct: extracellular domain; also called hROR2
# Assay: protein ELISA, phage
# T1 sequence (Q01974 34-403): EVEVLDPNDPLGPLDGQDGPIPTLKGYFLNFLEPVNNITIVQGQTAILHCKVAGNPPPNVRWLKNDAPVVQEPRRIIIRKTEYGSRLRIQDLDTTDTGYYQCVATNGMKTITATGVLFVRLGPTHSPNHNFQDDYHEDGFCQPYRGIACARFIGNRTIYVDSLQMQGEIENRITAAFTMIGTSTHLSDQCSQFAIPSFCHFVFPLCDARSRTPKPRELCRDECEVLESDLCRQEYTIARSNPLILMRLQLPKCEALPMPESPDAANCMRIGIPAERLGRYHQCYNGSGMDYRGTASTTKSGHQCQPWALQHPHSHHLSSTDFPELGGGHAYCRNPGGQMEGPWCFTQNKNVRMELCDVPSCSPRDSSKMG
row,Binder,binding result
1,B1,no binding

# Molecular target: T2, ROR1 extracellular domain Fc-fusion, dimer (human, UniProt Q01973 30-406)
# T2 construct: also called ROR1 dimer; hROR1 dimeric ECD-Fc fusion protein; not shown: Fc part
# Assay: SPR, immobilised ROR1 dimer, antibody injected, 1:1 model; apparent affinity
# Method: (§1) The binding affinities of ROR1 extracellular domain dimer and monomer for anti-ROR1 antibodies were determined by surface plasmon resonance (SPR). ROR1 extracellular domain Fc-fusion, “dimer,” and ROR1 extracellular domain Fc fusion:Fc heterodimer, “monomer,” are the dimer and monomeric forms of ROR1 used for affinity analysis, respectively. Briefly, ROR1 dimer and monomer were directly immobilized to a CM4 chip using an amine coupling kit and 100 mM ethylenediamine in 100 mM Sodium Borate buffer, pH 8.0 as the blocking reagent. Approximately 100-150 RU of ROR1 dimer and monomer were immobilized on separate flow cells and an un-derivatized flow cell was used as a reference control. […] Dissociation was followed for 180 seconds. The association constant, dissociation constant, and affinity of each anti-ROR1 antibody was calculated using the Biacore T200 Evaluation Software 1:1 binding model.
# (§2) Sensorgrams were normalized to 100 RU using the “binding stability point” at the end of the association phase but before the dissociation phase.
# T2 sequence (Q01973 30-406): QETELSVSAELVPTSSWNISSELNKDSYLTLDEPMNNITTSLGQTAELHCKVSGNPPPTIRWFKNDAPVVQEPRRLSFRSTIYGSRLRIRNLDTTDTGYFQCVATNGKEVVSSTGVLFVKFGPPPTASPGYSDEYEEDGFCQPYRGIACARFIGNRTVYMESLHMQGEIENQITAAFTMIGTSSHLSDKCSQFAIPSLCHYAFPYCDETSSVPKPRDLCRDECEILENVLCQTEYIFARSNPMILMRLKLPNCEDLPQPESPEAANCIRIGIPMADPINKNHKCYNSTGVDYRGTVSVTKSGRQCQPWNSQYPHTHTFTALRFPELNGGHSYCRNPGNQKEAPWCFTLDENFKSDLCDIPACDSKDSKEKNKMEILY
row,Binder,Kd [nM]
1,B2,0.5
2,B3,3.9
3,B4,20.7
4,B5,28.5
5,B6,1
6,B7,178
7,B8,2.2
8,B9,1.7
9,B10,11.9
10,B11,0.9
11,B12,0.1
12,B13,0.2
13,B14,1.1

# Molecular target: T3, human ROR1 extracellular domain (ECD) protein (human, UniProt Q01973 30-406)
# T3 construct: also called hROR1-ECD; human ROR1-ECD
# Assay: competitive phage ELISA: soluble ROR1 against ROR1-coated plate
# Method: Purified phage antibodies were first diluted serially in PBST buffer, and tested for binding to a ROR1-coated plate. The dilution that gave 50-80% saturating signal was used in the solution binding assay in which phage were first incubated with increasing concentration of ROR1 for one to two hours, and then transferred to a ROR1-coated plate for 10-15 minutes to capture the unbound phage.
# T3 sequence (Q01973 30-406 limits assumed): as the sequence (Q01973 30-406) above
row,Binder,IC50 [nM]
1,B1,0.93

# Molecular target: T2, ROR1 extracellular domain Fc-fusion, …
# Assay: SPR, immobilised ROR1 dimer, antibody injected, 1:1 model
# Method: as §1, §2
Binder,koff [s⁻¹],kon [M⁻¹ s⁻¹]
B2,0.00087,1.6e+06
B3,0.0017,440000
B4,0.0035,170000
B5,0.0097,340000
B6,0.00032,340000
B7,0.079,440000
B8,0.0012,520000
B9,0.0018,1e+06
B10,0.022,1.8e+06
B11,0.00063,680000
B12,0.00023,1.9e+06
B13,0.00076,3.6e+06
B14,0.0011,940000

# Molecular target: T4, ROR1 extracellular domain Fc fusion:Fc heterodimer, monomer (human)
# T4 construct: Heterodimer of one ROR1 ECD-Fc chain and one Fc chain; also called ROR1 monomer; hROR1 monomeric ECD-Fc fusion protein; not shown: Fc part; Fc alone
# Assay: SPR, immobilised ROR1 monomer, antibody injected, 1:1 model
# Method: as §1, §2
# T4 sequence (Q01973 30-406, one chain of several): as the sequence (Q01973 30-406) above
Binder,Kd [nM],koff [s⁻¹],kon [M⁻¹ s⁻¹]
B2,0.8,0.0014,1.8e+06
B3,8.2,0.0028,350000
B4,40.2,0.005,120000
B5,36.4,0.012,320000
B6,4.6,0.0012,270000
B7,407,0.095,230000
B8,4.1,0.0018,450000
B9,3,0.0027,920000
B10,20.6,0.026,1.2e+06
B11,2.8,0.0017,590000
B12,0.4,0.00069,1.6e+06
B13,0.3,0.0016,4.6e+06
B14,1.5,0.0016,1.1e+06
